Assay results as given in patent US6423315 (UNIVERSITY OF TENNESSEE RESEARCH, dated 2002).
Ends that are not written are not given here.

Molecular target: I-A^q molecule of MHC (mouse (DBA/1))
Experiment: cell-based or functional assay

B1: CII 245-270 [s266, 267, 269] (peptide)
peptide: PTGPLGPKGQTGELGIAGFKGDTGAK
modifications: not fully specified
B1 was tested, and the “IL-2 U/ml, T-cell hybridoma 2qCII92.33, molar ratio competitor:CII 245-270 1.6:1” value was 160 U/ml, the “IL-2 U/ml, T-cell hybridoma 2qCII92.33, molar ratio competitor:CII 245-270 3.2:1” value was 160 U/ml and the “IL-2 U/ml, T-cell hybridoma 2qCII92.33, molar ratio competitor:CII 245-270 6.5:1” value was 160 U/ml. For the same binder, the “IL-2 U/ml, T-cell hybridoma 2qCII92.33, molar ratio competitor:CII 245-270 13:1” value was 160 U/ml, the “IL-2 U/ml, T-cell hybridoma qCII85.33, molar ratio competitor:CII 245-270 1.6:1” value was 640 U/ml and the “IL-2 U/ml, T-cell hybridoma qCII85.33, molar ratio competitor:CII 245-270 3.2:1” value was 640 U/ml. For the same binder, the “IL-2 U/ml, T-cell hybridoma qCII85.33, molar ratio competitor:CII 245-270 6.5:1” value was 640 U/ml, the “IL-2 U/ml, T-cell hybridoma qCII85.33, molar ratio competitor:CII 245-270 13:1” value was 640 U/ml and the “IL-2 U/ml, T-cell hybridoma qCII98.10, molar ratio competitor:CII 245-270 1.6:1” value was 160 U/ml. For the same binder, the “IL-2 U/ml, T-cell hybridoma qCII98.10, molar ratio competitor:CII 245-270 3.2:1” value was 160 U/ml, the “IL-2 U/ml, T-cell hybridoma qCII98.10, molar ratio competitor:CII 245-270 6.5:1” value was 160 U/ml and the “IL-2 U/ml, T-cell hybridoma qCII98.10, molar ratio competitor:CII 245-270 13:1” value was 160 U/ml.
